Experimental data reported in PMC10616557 (iScience, 2023).

Biological target: the molecule itself
Assay: cross-linking

Protein	stoichiometry N
MGNASFGSKEQKLLKRLRLLPALLILRAFKPHRK (peptide, UniProt O95661 1-34, looked up) [DIRAS3 N-terminal extension peptide, wild type (NTEwt)]	2
MANASFGSKEQKLLKRLRLLPALLILRAFKPHRK (peptide, UniProt O95661 1-34, looked up) [DIRAS3 NTE peptide with mutation of the glycine myristoylation site (NTEG2A)]	2
